Bounds are passed on as bounds.

The values below come from US20250281556A1, “PRODUCTION OF RNA POLYNUCLEOTIDES ENCODING PICORNAVIRUS” (priority 2022, published 2025).

In data set [1] the test system is ~260 nt segment of the 5′-end of the viral genome sequence (virus start). Briefly: Ribozyme cleavage efficiency, test construct with longer ~260 nt virus start. Type of data set: biochemical, CVA21. As to conditions: gel electrophoresis. On the procedure: (§1) Experiments were performed to optimize the ribozyme sequence at the 5′ junctional cleavage sequence region of the in vitro transcription template for CVA21 viral genome based on the test construct design according to FIG. 10B. Initially, a short, about 60 nt segment(S) of the 5′-end of the viral genome (“virus start”) was used to identify ribozymes that yielded high cleavage efficiency. […] Specifically, for an initial candidate ribozyme that yielded >90% cleavage efficiency in the test construct with short ˜60 nt virus start, it yielded only about 10-35% cleavage efficiency upon incorporation of the expression construct for the full-length viral genome. […] Thus, the test construct was redesigned to include a longer, about 260 nt segment (L) of the 5′-end of the viral genome sequence. […] Therefore, the test construct “L” with longer virus start better recapitulates the cleavage efficiency of the candidate ribozyme when incorporated into the full-length viral genome.
Further optimization was performed in the DNA template encoding ENT27 ribozyme, including: • Replacing the P2 motif “TTGGTT” of ENT27-WT with “TTTGTT” (ENT27-V1) or “TTTATT” (ENT27-V2, ENT27-V3, ENT27-V4) to complement the 5′ end of the viral start “UUAAA” after ribozyme cleavage. • Inserting additional nucleotides “GAAA” (ENT27-V3) or “ACGAGAAATCGT” (ENT27-V4) into the P3 stem insert of the ENT27 ribozyme. These optimizations are illustrated in FIG. 11A and FIG. 11B.
The cleavage efficiencies of these optimized ENT27 ribyzomes were analyzed using the test constructs with longer ˜260 nt virus start. The leader sequence used in these constructs include L1 (SEQ ID NO: 135) and L2 (SEQ ID NO: 136).

For data set [2], the system named is full-length CVA21 viral genome RNA. In words: Ribozyme cleavage efficiency in the full-length CVA21 viral genome expression construct. It is filed as biochemical. As to conditions: L1 leader sequence, RT-dPCR and RNA digest methods, vs control vector CVA21v1. The procedure: as §1
ENV27-V2 ribozyme and L1 leader sequence was then incorporated into the CVA21 viral genome expression construct and tested for cleavage efficiency using both RT-dPCR and RNA digest methods.

B1: ENV27-V2: ENV27 ribozyme variant, DNA SEQ ID NO: 132, P2 motif TTTATT; tested with L1 leader sequence (nucleic acid)
DNA: ACTCGTTTGAGCGAGTATAAACAGTTTATTAGGCTCAAAGCGGAGAGCAGATCTGCTCTCG
modifications: expressed or natural sequence
On to B1, for which the cleavage efficiency result in data set [1] is recorded as “much better cleavage efficiency”; in data set [2] it was above 90%.

B2: ENV27-V3: ENV27 ribozyme variant, DNA SEQ ID NO: 133, TTTATT and GAAA inserted into P3 stem insert (nucleic acid)
DNA: ACTCGTTTGAGCGAGTATAAACAGTTTATTAGGCTCAAAGCGGAGAGCAGAGAAATCTGCTCTCG
modifications: expressed or natural sequence
For B2, the cleavage efficiency entry in data set [1] is reported as “improved the cleavage efficiency”.

B3: ENV27-V4: ENV27 ribozyme variant, DNA SEQ ID NO: 134, TTTATT and ACGAGAAATCGT inserted into P3 stem insert (nucleic acid)
DNA: ACTCGTTTGAGCGAGTATAAACAGTTTATTAGGCTCAAAGCGGAGAGCAGAACGAGAAATCGTTCTGCTCTCG
modifications: expressed or natural sequence
Regarding B3, the cleavage efficiency result in data set [1] was “improved the cleavage efficiency”.

B4: ENT27-WT: ENV27 ribozyme, corresponding DNA sequence SEQ ID NO: 130, P2 motif TTGGTT (nucleic acid)
DNA: ACTCGTTTGAGCGAGTATAAACAGTTGGTTAGGCTCAAAGCGGAGAGCAGATCTGCTCTCGTCCAA
modifications: further chemistry not given here
Consider B4, for which the cleavage efficiency entry in data set [1] is “promising candidate”.
